In patent US20240294611A1:
Several values for one entry are separate records, joined by “and”; a condition that tells them apart may be missing. Equal values may be shown once.

Molecular target: SARS-CoV-2 spike (two-proline stabilized S-2P extracellular domain fused to foldon) (SARS-CoV-2) (UniProt P0DTC2)

## antibody S309 (Pinto et al., 2020)
  Kd: 7 nM and 20 nM
